The record followed here is paper PMC6343935.

The experiment concerns the target Taggert virus (TAGV) viral ovarian tumor domain protease (vOTU) (Taggert virus (TAGV)). Briefly: ITC.

Take “ubiquitin (Ub), wild type (from UniProt P0CG48 1-76) (natural protein)”: the dH was -19.6 kJ/mol and the stoichiometry N turned out to be 1.34 sites.
